Ends that are not written are not given here.
Key:
[1] = target: T1, E. cloacae Cap2 E1 domain, residues 374-600, C548A (Enterobacter cloacae UCI 50, UniProt P0DX82 374-600); test: X-ray crystallography of a fusion construct, 1.77 A
T1 construct: also called Cap2 E1 (of Cp2 E1-CD-NTase Apo, PDB 7TSX)

[2] = target: T2, E. cloacae Cap2 E1 domain, residues 363-600, C548A (Enterobacter cloacae UCI 50, UniProt P0DX82 363-600); test: X-ray crystallography of a fusion construct, 2.11 A
T2 construct: also called Cap2 E1 (of Cap2 E1-CD-NTase: AMP, PDB 7TSQ)

[3] = target: T3, E. cloacae Cap2 C109A/C548A (catalytically dead) (Enterobacter cloacae UCI 50, UniProt P0DX82 1-600); test: co-purified stoichiometric complex, cryo-EM
T3 construct: also called C.D. Cap2; Cap2(C548A/C109A)

Binder	binding result [1]	binding result [2]	binding result [3]
KPAEPQKTGRFA (also: C terminus conjugated to AMP in ATP-bound structure, unmodified in apo structure) [E. cloacae CD-NTase C terminus, residues 370-381]	binds	binds	
E. cloacae CD-NTase with an N-terminal His6-tag (enzyme, C terminus conjugated to AMP in the cryo-EM structure, also called His6-CD-NTase; ec cdnD02; not shown: N-terminal His6-TEV cleavage site tag of vector 2-BT) MELQPQFNEFLANIRPTDTQKEDWKSGARTLRERLKNFEPLKEIVVSTFLQGSIRRSTAIRPLGDKRPDVDIVVVTNLDHTRMSPTDAMDLFIPFLEKYYPGKWETQGRSFGITLSYVELDLVITAIPESGAEKSHLEQLYKSESVLTVNSLEEQTDWRLNKSWTPNTGWLSESNSAQVEDAPASEWKAHPLVLPDREKNEWGRTHPLAQIRWTAEKNRLCNGHYINLVRAVKWWRQQNSEDLPKYPKGYPLEHLIGNALDNGTTSMAQGLVQLMDTFLSRWAAIYNQKSKPWLSDHGVAEHDVMARLTAEDFCSFYEGIASAAEIARNALASEEPQESAQLWRQLFGSKFPLPGPQGGDRNGGFTTPSKPAEPQKTGRFA			binds
